Data on 41 sequences can be found in the nanobody polyreactivity screen of Harvey et al. (2022).

This series can be described thus: yeast display, Sf9 membrane polyspecificity reagent, FACS + sequencing; frameworks hold sequencing errors. Summed up: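 Genes from sorted yeast were amplified by colony PCR, read by MiSeq 2 × 250 sequencing and filtered on CDR length. These cells carried a synthetic nanobody library in Saccharomyces cerevisiae BJ5465 and were sorted by FACS into low and high (top ~1%) gates on anti-HA and streptavidin fluorescence. Polyreactivity is labelled according to the gate of origin.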
For “QVQLVESGGGLVQAGGSLRISCAASGRTFKRYAMGWYRQAPGKERELVAAITGTGAITYYADSVKGRFTISRDNAKNTVYLQMNSLKPEDTAVYYCNARYWYRYGGYKPVGGYYWGQGTQVTVSS”, the “polyreactivity (PSR sort gate)” value is listed as “high polyreactivity”. Next, “QVQLVESGGGLVQAGGSLRLSCAASGITFAYYVMGWYRQAPGKERELVAAINWSGGSTYYADSVKGRFTISRDNAKNTVYLQMNSLKPEDTAVYYCAADWSTWYGEKFYWGQGTQVTVSS”: “high polyreactivity”.

Consider “QVQLVESGGGLVQAGGSLRLSCAAYGGTLPVNAMGWYRQAPVKERELVAAITTGTSTNYADSVKGRFTISRDNAKNTVYLQMNSLKPEDNAVYYCAKDQADFAYGYWGEGTQVTVSS”, for which the “polyreactivity (PSR sort gate)” value is listed as “low polyreactivity”. Next, “QVQLVESGGGLVQAGGSLRLSCAASGFIFNYNAMGWYRQAPGKERELVAAISGTGVRTYYADSVKGRFTISRDNAKNTVYLQMNSLKPEDTAVYYCNAYYGYIPVSGYRNDYWGQGTQVTVSS”: “low polyreactivity”. With “QVQLVESGGGLVQAGGSLRLSCAASGRIFRFNAMGWYRQAPGKERELVAAITSGVRTNYADSVKGRFTISRDNAKNTVYLQMNSLKPEDTAVYYCAASRHYPGYRRYDYWGQGTQVTVSS” the entry was “high polyreactivity”. Next, “QVQLVESGGGLVQAGGSLRLSCAASGSILYVYAMGWYRQAPGKERELVAAISFSGGSTYYADSVKGRFTISRDNAKNTVYLQMNSLKPEDTAVYYCAADVSYDIYVEYDYWGQGTQVTVSS”: “low polyreactivity”; “QVQLVESGGGLVQAGGSLRLSCPASGRIFGVYAMGWYRQAPGKESELVAAIRYRGGSTYYADSVKGRFTISRDNAKNSVYLQMNSLIPEDTAVYYCAAEVWGVGYYAPYGYWGQGTQVTVSS”: “high polyreactivity”; “QDQLVESGGGLVQAGGSLRLSCAASAFTLSPNSMGWDRQAPGKEREFVAAISQRGGSTYYADSVKGRFTISRDNAKNTVYLQMNSLKPEDSAVYYCARDTKYKYDYWGQGTQVTVSS”: “low polyreactivity”.

With “QVQLVESGGGLVQAGGSLRLSCDASGIIFQYYAMGWYRHAPGKERELVAAISWSGGSTYYADSVKGRFTISRDNAKNTVYLQMNSLKPEDTAVYFCAARSRSFWPYEGDYWGQGTQVTLSS”, the “polyreactivity (PSR sort gate)” value is recorded as “low polyreactivity”. With “QVQHVESGGGLVQAGGSLRLSCAASGFIFSKYAMGWYRPAPGKERELVAAITRSGGRTYYADSVKGRFTISRDNAKNTVYLQMNSLKPEDTAVYYCAASWLYFGRDYWGQGTQVTVSS” the entry was “high polyreactivity”; with “QVQLVESGGGLVQAGGSLRLSCAASGRIFYGYAMGWYRQAPGKERELVAAITSGSRTNYADSVKGRFTISRDNAKNTVYLQMNSLKPEDTAVYDCHSRYGSYLYSLVHNTRYDYWGQGTQVTVSS”, “low polyreactivity”.

In the case of “QVQLVESGGGLVQAGGSLRLSCAASGITFDYYGMGWYRQAPGKERALCASITSGGSTNYADSVKGRFTISRDNAKNSVYLQMNSLKPEDTAVYYCAADGYGGYYRGTYYTVYFWGQGTQVTVSS”, the “polyreactivity (PSR sort gate)” value is “low polyreactivity”. Next, “QVQHVESGGGLVQAGGSLRLSCAASGFTFYTYAMGWYRPAPGKERELVAAITSSGGSTYYADSVKGRFTISRDNAKNTVYLQMNSLKPEDTAVYYCNDRVRTQQRWVDYWGQGTQVTVSS”: “high polyreactivity”; “QVQLVESGGGLVQAGGSLRLSCAASGLIFDVNTMGWYRQAPGKERELVAAITGSGGRTYYADSVKGRFTISRDNGKNTVYLQMNSLKPEDTAFYYCNADTSYVGFDYWGQGTQVTVSS”: “low polyreactivity”.

In the case of “QVQLVESGGGLVQAGGSHRLSCAASGGILETNAMGWYRQAPGKERELVAAIDFSAGSTYYADSVKGRFTISRDNAKNTVYLQMNSLKPEDTAVYYCAAESQGPKDDYLWGWHIYYYWGQGSQVTVSS”, the “polyreactivity (PSR sort gate)” value is “low polyreactivity”.

On to “QVQLVESVGGLVQAGGSLRLSCAASGFIFWPYAMGWSRQAPGKERELVAGITSDGSTHYADSVKGRFTISRDNAKNTVYLQINSLKPQDTAVYYCAKGIRYGYRVRVYYWGQGTQVTVSS”, for which the “polyreactivity (PSR sort gate)” value was “high polyreactivity”. Next, “QVQLVDSGGGLVQAGASLRLSCAASGRIITAYYAMGWYRQAPGKERELVASISSSGTSTYADSVKGRFTISRDYAKNTVYLQMKSLKPEDTAVYYCATRKQRTRRYDYGYWGQGTQVTVSS”: “low polyreactivity”; “QDQLVESGGGLVQAGGSLRLSCAASGFTFYRYAMGWYRQAPGKERELVATIRNGGNTNYADSVKGRFTISRDNAKNTVYVQMNSLKPEDTAVYYCAKTVLAGMDWGQGTQVTVSS”: “high polyreactivity”; “QVQLVESGGGLVQAGGSLRLSCAASGSIFYRYAMGWYRQAPGKERELVATIRSGGSTNYADSVKGRFTISRDNAKNTVYLQMKSLKPEDTAVYYCAAVTPETQPDSGPVPPMDSWGQGTQVTVSS”: “low polyreactivity”.

Consider “QVQLVETGGGLVQAGGSLRISCAASGGIFVFYAMGWYRQAPGKERELVAAISWSGTSTYYADSVKGGFTISRDNAKYTVYLQMNRLKPEDTAVYYCAALYPYQYVRGGYWGQGTQVTVSS”, for which the “polyreactivity (PSR sort gate)” value is given as “high polyreactivity”.

Turning to “QVQLVESGGGLVQAGGSLRLSCAASGSIFGNNAMGWYRQAPGKERELVAAITSSGGSTYYADSVKGRFTISRDNAKNTVYLQMNSLKPEDTAVYYCATEWSGYTYWFYEWEYGYWGQGTQVTVSS”, the “polyreactivity (PSR sort gate)” value was “high polyreactivity”.

In the case of “LVQLVESGGGLVQAGGSLRLSCAASGNTFVSNAMGWYRQAPGKERELVAAIDSGGSTNYADSVKGRFTISRDNAKNTVYLQMNSLKPDDTAVYYCTRTSVYYYYWGQGTQVTVSS”, the “polyreactivity (PSR sort gate)” value is given as “low polyreactivity”.

Take “QVQLVESGGGLVQAGGSLRLSCAASGFIFYWYAMGWYRQAHGKERELVARITQSVGRTYYADSVKGRFTISRDNAKNTVYLQMNSLKPEDTAVHYCATDYGSYWSGAAYERYDYWGQGTQVTVSS”: the “polyreactivity (PSR sort gate)” value is on record as “low polyreactivity”. With “QVHHVESGGGLVQAGGSLRLSCAASGLILVPNTMGWYRQAPGKERELVAAISYSGGGTYYADSVKGRFTISRDNAKNNVYLQMNSLKPEDTAVYYCAAYVKRESAPYGYWGQGTQVTVSS” the entry was “low polyreactivity”; with “QVHLVESGGGLVQAGGSLRLSCAASGSTFSIYAMGWYRQAPGKERELVAAINSGGDTNYADSVKGRFTISRDNAKNTVYLQMNSLKPEDTAVYYCAKQVYTSRRSRGRYGFGYWGQGTQVTVSS”, “high polyreactivity”; with “QVQLVESAGGLVQARGSLRLSCAASGRIFDVNAMGWYRQAPGKERELVAAISSGGNTKYADSVKGRFTISRDNAKNTVYLQMNSLKPEDTAVYYCNADGKAGGDSDYWGQGTQVTVSS”, “low polyreactivity”. With “QVQLVESGGGIVQAGGSLRLRCAASGSIFRFNAMGWYRQAPGKERDLVAAISSSGSSTYYADSVKGRFTISRDNSKNTVYLQMNSLKPEDTAVYYSAARNSYGNWRYYYWGQGTQVTVSS” the entry was “high polyreactivity”.

For the sequence “QVQLVESGGGLVQAGGSLRLSCAASGFIFYYNAMGWYRHAPGKERELDAGISRSAGSTYYADSVKGRFTISRDNAKNSVYLHMNSLTPEDTAVYYCAARYLSYITGTSYYWGQVTQVTVSS”, the “polyreactivity (PSR sort gate)” value is “low polyreactivity”. Next, “QVQLVESGGGLVQAGGSLRLSCAASGSIFVDYAMGWSRQAPGKERELVAAITSGGRTNYADSVKGRFTISRDNAKNTVYLQMNSLKPEDTAVYYCNKTRYTNYYTTTFDYWGQGTQVTVSS”: “low polyreactivity”; “QVQLVESGGGLVQAGGSLRLSCAASGSTFEIYAMGWYRQAPGKERELVAAISSGGSTNYADSVKGRFTISRDNAKNTVYLQMNSLKPEDTAVYYCVYAIQFDYWGQGTQVTVSS”: “low polyreactivity”; “QVQLVESGGGLVQAGGSLRLSCAASGSTFDSNVIGWYRQAPGKERELVAAITWSGGSTYYADSVKGRFTISRDNAKNTVYLQMNSLKPEDTAVYYCAARHYPRYGNRRMYYWGQGTQVTVSS”: “high polyreactivity”. With “QVQLVESGGGLVQAGGSLRLSCAASGRISGLYAMGWSRQAPGKEWELVADSTYYADSVKGRFTISRDNAKNTVYLQMNSLKEEDTAVYYCAAVGGGTSTYSGDYWGQGTQVTVSS” the entry was “high polyreactivity”; with “QVQLVESGGGLVQAGGSLRLSCAAYGSIFLYYTMGRYRQAPGKERELVAAISRSGGSTYYADSEKGRFTISRDNALNTVYLQMNSLKPEDTAVYFCGSRSGYIYEYWGQGTQVTVSS”, “high polyreactivity”; with “QVKLVESGGGLVQAGGSLRLSFDASGSTFYFYAMGLYRQDPGKETEFFAAITQSGGSTNYADSVKGRFTISRDKAKNTVYLQMNSLKPEDTAVYYCSAREWRSFDYWGQGTQVTVSS”, “low polyreactivity”. Regarding “QVQLVESGGGVVQAGGSLRLSCAASGRTFLVTALGWYRQAPGKERELVAVITRGGSTNYADSVKGRFTISRDNAKNTVYLQMNSLKPEDTAVYYCAKQFSPYRSYGPVVRYDYWGQGTQVTVSS”, the “polyreactivity (PSR sort gate)” value is given as “low polyreactivity”. Next, “QVQLVESGGGLVQAGGSLRLSCAASGSIFAYYAMGWYRQAPGKERELVADITSSGGITYYADSVKGRFTISRDNAKNTVYLQMNSLKPEDTAVYYCNADSWAIGGGSYPYDYWGQGTQVTVSS”: “low polyreactivity”.

Regarding “QVQLLESGGGLVQAGGSLRLTCAASGRTFYRNAMGWYRPAPGKERELVAAISSGGSTTYADSVKGRFTISRDNAKNTVYLQMNSLKPEDTAVYYCAARSHAGSVSPRLKEYDYWGQGTQVTVSS”, the “polyreactivity (PSR sort gate)” value is “low polyreactivity”. Next, “QVQLVESGGGLVQAGGSLRLSCAASGRIFGSYTMGWYRQAPGKERELVAGISRRGGSTYYADSVKGRFTISRDNAKNTVYLQMNGLKPEDTAVYYCAAVSSVFSVRYDYWGQGTQVTVSS”: “high polyreactivity”; “QVQLVESGGGLVQAGGSLRLSCAASGSIFDGNAMGWYREAPGKERELVAAISRRAGSTYYADSVKGRFTISRDNAKNTVYLQMNSLNPEDTAVYYCAASLYVPRFSRLGYDYWGQGTHVTVSS”: “high polyreactivity”. Next, “QVQLVESGGGLVQARGSLRLICAASGRIFPDYGMGWYRQAPGKESEFDAVIDWIGVSTYYADSVKGRFTISRDNAKNTVYLQINSLKPEDTAVYYCNAEYAFPSPKSSLDYWGQGTQVTVSS”: “low polyreactivity”; “QVQLVESVGGLVQAGGSLRLSCAASGFIIYGYGMGWYRQAPGKERELVAAISARSTRTYYADSVKGRFTISRDNAKNTVYLQMNSLKPEDTAVYYCAAVRGPTYRNDNYGYWGQGTQVTVSS”: “high polyreactivity”.
